Patent publication US20100081612A1 (GENERAL HOSPITAL, published 2010)
Where two headings read alike, the source gives them in different places. Where no end group is shown, it is not given here. [ ]: non-standard residue; d: D form. Cha = N[C@@H](CC1CCCCC1)C(=O)O

T1: wild-type human PTHR (human, UniProt Q03431 27-593)
T1 construct: whole, on cells; also called PTHR-WT; intact PTHR
T1 sequence (looked up): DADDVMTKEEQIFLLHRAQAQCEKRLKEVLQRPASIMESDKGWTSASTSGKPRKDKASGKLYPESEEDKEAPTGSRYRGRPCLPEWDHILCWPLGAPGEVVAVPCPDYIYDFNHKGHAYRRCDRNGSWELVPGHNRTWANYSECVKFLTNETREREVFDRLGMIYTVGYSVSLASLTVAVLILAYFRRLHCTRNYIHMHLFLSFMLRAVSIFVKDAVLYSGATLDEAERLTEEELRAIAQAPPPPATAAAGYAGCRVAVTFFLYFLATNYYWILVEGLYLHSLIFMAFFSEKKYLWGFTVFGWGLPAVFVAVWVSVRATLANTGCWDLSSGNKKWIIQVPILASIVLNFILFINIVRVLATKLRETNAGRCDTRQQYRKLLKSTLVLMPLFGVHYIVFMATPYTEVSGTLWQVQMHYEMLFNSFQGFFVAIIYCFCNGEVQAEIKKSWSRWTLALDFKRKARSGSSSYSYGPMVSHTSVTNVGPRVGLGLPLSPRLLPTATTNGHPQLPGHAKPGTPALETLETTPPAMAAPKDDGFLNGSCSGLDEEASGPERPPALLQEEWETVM


What was measured:
wild-type human PTHR [1] = biological target: T1, wild-type human PTHR; experiment: competition binding, HKRK-B7 cells, 125I-PTH(1-34) tracer
Protocol: (§1) Receptor binding—Binding to the wild-type human PTHR in intact HKRK-B7 cells and ROS 17/2.8 cells was assessed using ¹²⁵I-PTH(1-34) as a tracer radioligand, as described (Shimizu, M., (2001) Endocrinology 142:3068-3074). In brief, the cells in 24-well plates (about 500,000 cells per well) were incubated in binding buffer containing radioligand (about 100,000 cpm per well) with or without unlabeled peptide ligand (3×10⁻⁹ to 1×10⁻⁵ M) for four hours at 15° C. The binding mixture was then removed by aspiration, the cells were rinsed three times with binding buffer, lysed in 1 M NaOH, and the entire lysate was counted for gamma-irradiation in a gamma counter. Binding to PTHR-delNt in COS-7 cell membranes was assessed in 96-well, vacuum filtration plates (Multiscreen-Durapore HV, […], Millipore Corp., Millford, Mass.) using ¹²⁵I-[Aib^{1,3},M]PTH(1-15)NH₂ as a tracer radioligand, as described (Dean, T., (2006) Mol Endocrinol 20:931-942). In brief, cell membranes (20 μg/well) were incubated in membrane binding buffer containing radioligand (30,000 cpm/well) with or without unlabeled peptide ligand (3×10⁻⁹ to 1×10⁻⁵ M) for 90 minutes at 21° C. The plates were then subject to rapid vacuum filtration, the filters were washed once with buffer, detached from the plate and counted for gamma-irradiation in a gamma counter. Non-specific binding was defined as the binding observed in the presence of 1×10⁻⁶ M PTH(1-31)NH₂ for HKRK-B7 and ROS 17/2.8 cells, and 1×10⁻⁶ M [Aib^{1,3},M]PTH(1-15)NH₂ for PTHR-delNt. Specifically bound radioactivity was calculated as a percentage of the radioactivity specifically bound in the absence of competing ligand.
Cyclohexylalanine and glutamate substitutions were introduced into [Ala¹,Arg¹⁹]hPTH(1-31)NH₂. The helical residue values were calculated from [θ]₂₂₂, the mean-residue elipticities observed in the CD spectra at 222 nm. Competition binding studies were performed in intact HKRK-B7 cells stably transfected with the hPTHR using ¹²⁵I-[Nle^{8,21},Tyr³⁴]rPTH(1-34)NH ₂ tracer radioligand, and in membranes prepared from COS-7 cells transiently transfected with hPTHR-delNt and a negative-dominant Gαs using ¹²⁵I-[Aib^{1,3},Nle⁸,Gln¹⁰,Har¹¹,Ala¹²,Trp¹⁴,Tyr¹⁵]rPTH(1-15)NH₂ tracer radioligand. Binding values (nM) are means (+/−s.e.m.) of data from the number of experiments indicated (n).

PTHR-delNt (human) = PTHR-delNt (human) (UniProt Q03431); experiment: competition binding, COS-7 membranes, 125I-[Aib1,3,M]PTH(1-15) tracer
wild-type human PTHR [2] = biological target: T1, wild-type human PTHR; experiment: competition binding, HKRK-B7 cells, 125I-PTH(1-34) tracer; remark: listed apart in the source
wild-type human PTHR [3] = biological target: T1, wild-type human PTHR; experiment: as above; remark: listed apart in the source
Protocol: as §1
Alanine-Scan of the PTH(17-31) domain—Each residue in the (17-31) region of PTH(1-31)NH₂ was individually replaced with alanine and the effects of the substitutions on binding to the intact human PTHR stably expressed in HKRK-B7 cells was assessed. Competition binding studies were performed using whole cells and ¹²⁵I-PTH(1-34) (¹²⁵I-[Nle^{8,21},Tyr³⁴]ratPTH(1-34)NH₂) as a tracer radioligand.

wild-type human PTHR [4] = biological target: T1, wild-type human PTHR; experiment: cell-based or functional assay

Binder | IC50 (wild-type human PTHR [1]) [nM] | IC50 (PTHR-delNt (human)) [nM] | fold change in binding affinity vs [Ala^1,Arg^19]PTH(1-31)NH2 (wild-type human PTHR [2]) [fold] | fold change in binding affinity vs [Ala^1,Arg^19]PTH(1-31)NH2 (PTHR-delNt (human)) [fold] | IC50 (wild-type human PTHR [3]) [nM] | inositol phosphate (IP) production, peptide at 1×10^-6 M (wild-type human PTHR [4]) [fold] | fold reduction in binding affinity vs PTH(1-31)NH2 (PTHR-delNt (human)) [fold] | fold enhancement in binding affinity vs PTH(1-31)NH2 (wild-type human PTHR [2]) [fold] | fold change in binding affinity vs PTH(1-31)NH2 (wild-type human PTHR [2]) [fold]
AVSEIQLMHNLGKHLNSMRRVEWLR[Cha]KLQDV-NH2 (N-terminus assumed; SMILES CC[C@H](C)[C@H](NC(=O)[C@H](CCC(=O)O)NC(=O)[C@H](CO)NC(=O)[C@@H](NC(=O)[C@H](C)N)C(C)C)C(=O)N[C@@H](CCC(N)=O)C(=O)N[C@@H](CC(C)C)C(=O)N[C@@H](CCSC)C(=O)N[C@@H](Cc1c[nH]cn1)C(=O)N[C@@H](CC(N)=O)C(=O)N[C@@H](CC(C)C)C(=O)NCC(=O)N[C@@H](CCCCN)C(=O)N[C@@H](Cc1c[nH]cn1)C(=O)N[C@@H](CC(C)C)C(=O)N[C@@H](CC(N)=O)C(=O)N[C@@H](CO)C(=O)N[C@@H](CCSC)C(=O)N[C@@H](CCCNC(=N)N)C(=O)N[C@@H](CCCNC(=N)N)C(=O)N[C@H](C(=O)N[C@@H](CCC(=O)O)C(=O)N[C@@H](Cc1c[nH]c2ccccc12)C(=O)N[C@@H](CC(C)C)C(=O)N[C@@H](CCCNC(=N)N)C(=O)N[C@@H](CC1CCCCC1)C(=O)N[C@@H](CCCCN)C(=O)N[C@@H](CC(C)C)C(=O)N[C@@H](CCC(N)=O)C(=O)N[C@@H](CC(=O)O)C(=O)N[C@H](C(N)=O)C(C)C)C(C)C) [[Ala^1,Arg^19]hPTH(1-31)NH2 Lys^26→Cha] | 172 | 1870 | ≤ 6 |  |  |  |  |  | 
AVSEIQLMHNLGKHLNSMRRVEWL[Cha]KKLQDV-NH2 [[Ala^1,Arg^19]hPTH(1-31)NH2 Arg^25→Cha] | 103 | 2710 | ≤ 6 |  |  |  |  |  | 
AVSEIQLMHNLGKHLNSMRRVEWLRKKLQD[Cha]-NH2 (N-terminus assumed; SMILES CC[C@H](C)[C@H](NC(=O)[C@H](CCC(=O)O)NC(=O)[C@H](CO)NC(=O)[C@@H](NC(=O)[C@H](C)N)C(C)C)C(=O)N[C@@H](CCC(N)=O)C(=O)N[C@@H](CC(C)C)C(=O)N[C@@H](CCSC)C(=O)N[C@@H](Cc1c[nH]cn1)C(=O)N[C@@H](CC(N)=O)C(=O)N[C@@H](CC(C)C)C(=O)NCC(=O)N[C@@H](CCCCN)C(=O)N[C@@H](Cc1c[nH]cn1)C(=O)N[C@@H](CC(C)C)C(=O)N[C@@H](CC(N)=O)C(=O)N[C@@H](CO)C(=O)N[C@@H](CCSC)C(=O)N[C@@H](CCCNC(=N)N)C(=O)N[C@@H](CCCNC(=N)N)C(=O)N[C@H](C(=O)N[C@@H](CCC(=O)O)C(=O)N[C@@H](Cc1c[nH]c2ccccc12)C(=O)N[C@@H](CC(C)C)C(=O)N[C@@H](CCCNC(=N)N)C(=O)N[C@@H](CCCCN)C(=O)N[C@@H](CCCCN)C(=O)N[C@@H](CC(C)C)C(=O)N[C@@H](CCC(N)=O)C(=O)N[C@@H](CC(=O)O)C(=O)N[C@@H](CC1CCCCC1)C(N)=O)C(C)C) [[Ala^1,Arg^19]hPTH(1-31)NH2 Val^31→Cha] | 66 | 466 | ≤ 6 | < 3 |  |  |  |  | 
SVSEIQLMHNLGKHLNSMERVEWLRKKLQDV-NH2 (also called hPTH(1-31)NH2; parental PTH(1-31)NH2 peptide) [human PTH(1-31)NH2] |  | 3670 |  |  | 68 | 4 |  |  | 
SVSEIQLMHNLGKHLNSMERVEWLRKKLQDA-NH2 [PTH(1-31)NH2 Val^31→Ala] |  | 4910 |  |  | 176 | 4 |  |  | 
SVSEIQLMHNLGKHLNSMERAEWLRKKLQDV-NH2 [PTH(1-31)NH2 Val^21→Ala] |  | 5690 |  |  | 200 | 4 |  |  | 
SVSEIQLMHNLGKHLNSMEAVEWLRKKLQDV-NH2 [PTH(1-31)NH2 Arg^20→Ala] |  | 19300 |  |  | > 10000 | 4 | 5 |  | 
SVSEIQLMHNLGKHLNSMERVEWLAKKLQDV-NH2 [PTH(1-31)NH2 Arg^25→Ala] |  | 7180 |  |  | 281 | 4 |  |  | 
SVSEIQLMHNLGKHLNSMERVEWLRKALQDV-NH2 [PTH(1-31)NH2 Lys^27→Ala] |  | 7290 |  |  | 217 | 4 |  |  | 
SVSEIQLMHNLGKHLNSMERVEWLRKKLADV-NH2 [PTH(1-31)NH2 Gln^29→Ala] |  | 1930 |  |  | 44 | 4 |  | ≤ 2 | 
SVSEIQLMHNLGKHLNSMARVEWLRKKLQDV-NH2 [PTH(1-31)NH2 Glu^19→Ala] |  | 2940 |  |  | 49 | 4 |  | ≤ 2 | 
SVSEIQLMHNLGKHLNSMERVAWLRKKLQDV-NH2 [PTH(1-31)NH2 Glu^22→Ala] |  | 5860 |  |  | 36 | 4 |  | ≤ 2 | 
SVSEIQLMHNLGKHLNSMERVEWLRKKAQDV-NH2 [PTH(1-31)NH2 Leu^28→Ala] |  | 3460 |  |  | 290 | 4 |  |  | 
SVSEIQLMHNLGKHLNSMERVEWLRKKLQAV-NH2 [PTH(1-31)NH2 Asp^30→Ala] |  | 1540 |  |  | 63 | 4 |  |  | ≤ 2
AVSEIQLMHNLGKHLNSMRRVEWLRKKLQ[Cha]V-NH2 (N-terminus assumed; SMILES CC[C@H](C)[C@H](NC(=O)[C@H](CCC(=O)O)NC(=O)[C@H](CO)NC(=O)[C@@H](NC(=O)[C@H](C)N)C(C)C)C(=O)N[C@@H](CCC(N)=O)C(=O)N[C@@H](CC(C)C)C(=O)N[C@@H](CCSC)C(=O)N[C@@H](Cc1c[nH]cn1)C(=O)N[C@@H](CC(N)=O)C(=O)N[C@@H](CC(C)C)C(=O)NCC(=O)N[C@@H](CCCCN)C(=O)N[C@@H](Cc1c[nH]cn1)C(=O)N[C@@H](CC(C)C)C(=O)N[C@@H](CC(N)=O)C(=O)N[C@@H](CO)C(=O)N[C@@H](CCSC)C(=O)N[C@@H](CCCNC(=N)N)C(=O)N[C@@H](CCCNC(=N)N)C(=O)N[C@H](C(=O)N[C@@H](CCC(=O)O)C(=O)N[C@@H](Cc1c[nH]c2ccccc12)C(=O)N[C@@H](CC(C)C)C(=O)N[C@@H](CCCNC(=N)N)C(=O)N[C@@H](CCCCN)C(=O)N[C@@H](CCCCN)C(=O)N[C@@H](CC(C)C)C(=O)N[C@@H](CCC(N)=O)C(=O)N[C@@H](CC1CCCCC1)C(=O)N[C@H](C(N)=O)C(C)C)C(C)C) [[Ala^1,Arg^19]hPTH(1-31)NH2 Asp^30→Cha] | 54 | 305 | ≤ 6 | < 3 |  |  |  |  | 
